Experimental data taken from US7030099B2, “Tumor specific promoters of the midkine gene that allow for selective expression in P53-inactivated cells” (Research Corporation Technologies, Inc., priority 2000, dated 2006).

Columns and labels:
[1] = as currently used for treatment of cytomegalovirus infections; cited from earlier work
lung cancer cells QG-56 = assay: In vitro sensitivity to GCV of MK0.6-TK-introduced cells; assay type: cell-based, human
Procedure: (§1) (2) Then, the tumor-specificity of this MK0.6 promoter was examined using the human tumor cells and normal fibroblasts. As described above, MK0.6-TK was introduced into various types of cells using lipofectin, and they were cultured in the presence of 400 μg/ml of G418 for ten days to obtain cells in which the MK0.6-TK gene was expressed. Thus, these gene-introduced cells were plated at 500 cells/well of 96-well culture plates, and were cultured in the presence of various concentrations of GCV for seven days. The survival rate of the cells was examined using the Cell Counting Kit-8. The results obtained are shown in FIG. 3A, FIG. 3B and FIG. 3C.

[2] = system: lung cancer cells QG-56, PC-1, human breast cancer cells BT549; assay: Luciferase assay of midkine promoter activity in tumor cells; assay type: cell-based; settings: FIG. 6
From the text: Using the PCR method based on the information of the midkine genomic DNA, a DNA fragment that corresponds to a 335 bp region (MK335bp) from −285 to +50 and that has the base sequence set forth in SEQ ID NO: 4 was synthesized, and after confirming the sequences, it was inserted into pCR2.1 (manufactured by Invitrogen). After excising MK335bp from this DNA, it was ligated to pGL2-Basic (manufactured by Promega) to construct a plasmid for detecting promoter activity. Furthermore, using pGL2-Control (manufactured by Promega) containing the promoter of SV40 virus and pGL2-Basic containing a similarly constructed 609 bp midkine promoter (MK0.6), promoter activity was examined by the following method.
The lung cancer cells QG-56, PC-1, and human breast cancer cells BT549 that were cultured in DMEM (Sigma) supplemented with 10% bovine fetal serum, were transfected. After 10 μg each of these plasmids and lipofectin (manufactured by Life Technologies) were mixed, it was allowed to stand at room temperature for 30 minutes to form a complex. […] In order to normalize the efficiency of gene introduction, 1 μg of pRL-TK plasmid (manufactured by Promega) was included in each gene introduction group, and the Renilla luciferase activity by the TK promoter was determined, based on which the Firefly luciferase activity was corrected.

[3] = system: normal human fibroblasts MRC-5; assay: CAT assay of promoter transcription activity, normal cells; assay type: cell-based; settings: FIG. 1
Procedure: (§2) Using the above plasmid, or a plasmid pCAT-Control (manufactured by Promega) having the promoter of SV40 virus, and a plasmid pCAT-Basic (manufactured by Promega) containing no promoters, gene introduction was performed on the lung cancer cells QG-56, the neuroblastoma NGP, and the normal human fibroblasts MRC-5 that were being cultured in a DMEM (Sigma) supplemented with 10% bovine fetal serum. After 10 μg each of these plasmids and lipofectin (Life Technologies) were mixed, it was allowed to stand at room temperature for 30 minutes to form a complex. Then the complex, after removing the bovine fetal serum therefrom, was contacted with the cells. Eight hours later culture medium supplemented with bovine fetal serum was added, cultured for 40 hours, and then the gene-introduced cells were disrupted by ultrasonication. After centrifugation, the supernatants were used to examine their transcription activities with the known CAT assay method (Gorman, C M et al., Mol. Cell. Biol., 2:1044–1051, 1982) using [^14C]-chloramphenicol and acetyl CoA. At this time, in order to normalize the efficiency of gene introduction, 1 μg of the β-galactosidase gene (pCH110, manufactured by Amersham) was introduced at the same time, and the β-galactosidase activity (Heromel, P. et al., Cell, 39:653–662, 1984) was determined.

immortalized MRC-5 cells = assay: Luciferase assay of MK0.6 promoter activity under expression of wild-type p53; assay type: cell-based, human; settings: FIG. 5
From the text: In at least about 50% of human solid tumors, the loss of p53 gene functions is observed, and forced expression of-the wild-type p53 gene in tumors arrests tumor growth in some cases. Thus, using the MRC-5 cells that had been immortalized by destroying the functions of the p53 gene, DNA plasmid was introduced in which the luciferase gene, a reporter gene, was ligated downstream of the MK0.6 promoter, and the transcription activity of the MK0.6 promoter under the expression of the wild-type p53 gene was examined.
For this purpose, the MK0.6-CAT plasmid prepared in Example 1 was cleaved with HindIII, and the MK0.6 kb gene obtained was inserted into the HindIII site of pGL2-Basic (manufactured by Promega). […] After 48 hours-culture, the cells were disrupted using the Dual-Luciferase Reporter Assay System (manufactured by Promega), and the Firefly luciferase activity therein was determined using the reagents in the same kit. In order to normalize the efficiency of transfection, 1 μg of pRL-TK plasmid (manufactured by Promega) was included in each transfection, and the Renilla luciferase activity by the TK promoter was determined, based on which the Firefly luciferase activity was corrected.

[4] = system: lung cancer cells QG-56, neuroblastoma NGP; assay: CAT assay of promoter transcription activity, tumor cells; assay type: cell-based, human
Procedure: as §2

normal fibroblasts HEF = assay: In vitro sensitivity to GCV of MK0.6-TK-introduced cells; assay type: cell-based, human; settings: MK0.6-TK-introduced HEF; GCV seven days; FIG. 3C
Procedure: as §1

neuroblastoma NGP cells = assay: as above; assay type: cell-based, human; settings: MK0.6-TK-introduced NGP; GCV seven days; FIG. 3B
Procedure: as §1

normal MRC-5 cells = assay: In vitro sensitivity to GCV of promoter-TK gene-introduced cells (Cell Counting Kit-8 survival); assay type: cell-based, human; settings: HSV-TK gene controlled by the promoter, GCV seven days, FIG. 2A
Procedure: (§3) (1) In order to examine cytotoxic effects by the transcription activity of the promoter obtained from the midkine gene, herpes simplex virus thymidine kinase (HSV-TK), a suicide gene, was ligated downstream of MK0.6 and MK2.3, and the plasmid was introduced in cells, and a prodrug gancyclovir (GCV) was added into the culture medium of the gene-introduced cells. The method of determining the cytotoxic effect by this system is as described in Moolten, FL. Cancer Gene Ther., 1:279–287, 1994.
(§4) First, the CMV promoter of pcDNA3 (manufactured by Invitrogen) was removed using NruI and HindIII sites, to which MK2.3 or Mk0.6 was inserted, and then using the EcoRV site, the HSV-TK gene excised from pMK (Brinster, R L et al., Cell, 27:223–231, 1981) with BglI and EcoRI was inserted. Each of the plasmids thus obtained (MK2.3-TK and MK0.6-TK) was introduced, as described above, using lipofectin into MRC-5 which are normal cells, or MRC-5 cells that had been immortalized by inactivating the functions of the p53 tumor suppressor gene. In order to utilize the expression of the Neo gene contained in pcDNA3 as drug resistant markers, the cells were cultured with 400 μg/ml of G418 (manufactured by Life Technologies) for ten days to establish the cells that expressed MK2.3-TK and MK0.6-TK, respectively. These cells were then plated at 500 cells/well of 96-well culture plates, and were cultured in the presence of various concentrations of GCV (manufactured by F. Hoffman-La Roche) for seven days. The survival rate of the cells was examined using the Cell Counting Kit-8 (manufactured by Dojin Kagaku). The survival of the cells at a GCV concentration of 0 μg/ml was set as 100%, and the survival for each experiment group is shown in terms of percentage in FIG. 2A and FIG. 2B.

[5] = system: immortalized MRC-5 cells (p53 functions inactivated); assay: as above; assay type: cell-based, human; settings: HSV-TK gene powered by the promoter, GCV seven days, FIG. 2B
Procedure: as §3, §4

Nc1nc(O)c2ncn(COC(CO)CO)c2n1 [GCV, gancyclovir, reference compound]
maximum blood concentration of GCV [1]: 1 µg/mL | concentration at which the cytotoxic effects by GCV was obtained (lung cancer cells QG-56; MK0.6-TK-introduced tumor cells (QG-56, NGP)): 100 ng/mL

B1: MK335bp: 335 bp midkine region from −285 to +50, base sequence SEQ ID NO: 4 (nucleic acid, listed as Homo sapiens)
DNA: ACCACCGCTCGGAAGATGGGGCCGGGAGAGGCCGCCGTCGCAGCGCAGAGGGCACCGGCGGGGAGACGCGAGGACGCGGGGCCGGGAACACGGACGCCGGAGTAGAAGCGCGGGGGGGGCGGGCTGGAGCGGGGGCGGGGACGCCGGGGTCGGGGGCGGTGCGGGTTTGAGGGGAGGGGGCGGGGCGGGTCCTTCCCTGGGGGGGTGGGGAGAGGGGGCGGGGGCCCATGTGACCGGCTCAGACCGGTTCTGGAGACAAAAGGGGCCGCGGCGGCCGGAGCGGGACGGGCCCGGCGCGGGAGGGAGCGAAGCAGCGCGGGCAGCGAGCGAGTGAG
promoter activity compared with MK0.6 [2]: almost the same activity as that of MK0.6

B2: MK0.6: 0.6 kb (609 bp, −559 to +50) of the human midkine genomic gene, base sequence SEQ ID NO: 1 (nucleic acid, listed as Homo sapiens)
DNA: GCTTCCCTGCCCACCCGCGGAAACCGCCCCAGGTGGCCGCGCCCCCTCCCCAGCAGCCAGCAGGGCGCCAGGGCTGAGCCGGCCGTGGAGGGGAGCGGGTCCCGGGGGTTATACAGGCGCCGGGCGTCCGCGGCAGGCAAGAGAAGCTGAGGCCTGAGAACGGCCCGGGCCTTGGCGTACGGCAGGGGACGACCTGGGATGGGGGCAGCGGGCGGCGGCGCAGGGAGTGGGCCGGGGCCGGTGTGCGCGGGCGGGACGGGGCCGGGGTCGGGAGACCACCGCTCGGAAGATGGGGCCGGGAGAGGCCGCCGTCGCAGCGCAGAGGGCACCGGCGGGGAGACGCGAGGACGCGGGGCCGGGAACACGGACGCCGGAGTAGAAGCGCGGGGGGGGCGGGCTGGAGCGGGGGCGGGGACGCCGGGGTCGGGGGCGGTGCGGGTTTGAGGGGAGGGGGCGGGGCGGGTCCTTCCCTGGGGGGGTGGGGAGAGGGGGCGGGGGCCCATGTGACCGGCTCAGACCGGTTCTGGAGACAAAAGGGGCCGCGGCGGCCGGAGCGGGACGGGCCCGGCGCGGGAGGGAGCGAAGCAGCGCGGGCAGCGAGCGAGTGAG
transcriptional activity compared with other midkine promoter fragments [3]: rather decreased in the normal cells | MK0.6 promoter activity with increasing amounts of CMV-p53 plasmid (immortalized MRC-5 cells; CMV-p53 0–1 μg co-transfected): decreased | MK0.6 promoter activity with control CMV-p53R plasmid (immortalized MRC-5 cells; CMV-p53R 0–1 μg co-transfected): no changes | tumor-specificity of promoter activity ([4]; tumor cells versus normal cells): specifically strong in tumors | transcriptional activity compared with other midkine promoter fragments ([4]; tumor cells, FIG. 1): more potent in the tumor cells than MK1.0 or MK2.3 | transcriptional activity compared with promoter of SV40 virus ([4]; tumor cells, FIG. 1): more potent than the promoter of SV40 virus in the tumor cells | sensitivity to GCV compared to parent strain (lung cancer cells QG-56; MK0.6-TK-introduced QG-56, GCV seven days, FIG. 3A): 1000 fold | sensitivity to GCV compared to parent strain (normal fibroblasts HEF): remained the same | sensitivity to GCV compared to parent strain (neuroblastoma NGP cells): 1000 fold | sensitivity to GCV compared to that of the parent strain (normal MRC-5 cells): identical with that of the parent strain | sensitivity to GCV compared to that of the parent strain [5]: 1000 fold
